The results in this text go back to paper doi:10.1101/2023.03.19.532587 (bioRxiv, 2023).

The data set deals with the molecule itself. The data set can be described thus: SEC-MALS. Background: In gel filtration, larger molecules generally elute earlier.

B1: nCPEB4-NTD (N-terminal domain of neuronal CPEB4, with microexon 4) (domain or fragment, human)
chain: MGDYGFGVLVQSNTGNKSAFPVRFHPHLQPPHHHQNATPSPAAFINNNTAANGSSAGSAWLFPAPATHNIQDEILGSEKAKSQQQEQQDPLEKQQLSPSPGQEAGILPETEKAKSEENQGDNSSENGNGKEKIRIESPVLTGFDYQEATGLGTSTQPLTSSASSLTGFSNWSAAIAPSSSTIINEDASFFHQGGVPAASANNGALLFQNFPHHVSPGFGGSFSPQIGPLSQHHPHHPHFQHHHSQHQQQRRSPASPHPPPFTHRNAAFNQLPHLANNLNKPPSPWSSYQSPSPTPSSSWSPGGGGYGGWGGSQGRDHRRGLNGGITPLNSISPLKKNFASNHIQLQKYARPSSAFAPKSWMEDSLNRADNIFPFPDRPRTFDMHSLESSLIDIMRAENDTIKARTYGRRRGQSSLFPMEDGFLDDGRGDQPLHSGLGSPHCFSHQNGE
In general, stoichiometry N refers to a count of units in the complex or per binding partner. With B1, the “stoichiometry N” value is about 350 molecules.
